Reference: the nanobody polyreactivity screen of Harvey et al. (2022)

Experiment: yeast display, Sf9 membrane polyspecificity reagent, FACS + sequencing; frameworks hold sequencing errors
In short: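 Galactose induction of a Saccharomyces cerevisiae BJ5465 synthetic nanobody display library ran 36–48 hours. The cells were then stained for 1 hour at 4 °C with 10% biotinylated, detergent-solubilized Sf9 membrane reagent, pulled down on streptavidin microbeads and FACS-sorted into low and high (top ~1%) gates on expression and reagent-binding fluorescence. Labels for polyreactivity follow the gate of origin.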

QVQLVESGGGLVQAGGSLRLSSAASGRTFYSNAMGWYRQAPGKERELVAAITRGASTKYADSVKGRFTISRDNAKNSVYLQMNSLKPEDTAVYYCDTARYPRYIYDYWGQGTQVTVSS
polyreactivity (PSR sort gate): low polyreactivity

QVQLVESGGGLVQAGGSLRLSCAASGRTLYGYPMGWYRQAPGKERELVAAISKRGTRTYYADSVKGRFTISRDNAKNTVYIQMNSLKPEDTAVYYCAARYPPDEATMVYWGQGTQVTVSS
polyreactivity (PSR sort gate): high polyreactivity

QVQLVESGGGLVQAGGSLRLSCAASGSTFHVNAMGWYRQAPGKEREFVAAISWRTGSTYYADSVKGRFTISRDNAKNTVYLQRHSLKPEDTAVYYCAAKRSYSNYDYWGQGTQVTVSS
polyreactivity (PSR sort gate): high polyreactivity

QVQLVESGGGLVQAGGSLRLSCAASGFNFIDYAMGWYRQAPGKERELVAAITSSGGRTYYADSVKGRFTISRDNAKITVYLQMTSLKPEDTAVYYCAARLPGYVRIYDYWGQGTQVTVSS
polyreactivity (PSR sort gate): high polyreactivity

QVQLVESGGGLVQAGGSLRLSCADSGRTFTRYAMGWYRQAPGKERELVAAISYIGGGTYYADSVKGRFTISRDNAKNTVYLQMNSLKPEDTAVYYCAGYSRQAEYEYWGQGTQVTVSS
polyreactivity (PSR sort gate): high polyreactivity

QDQLVESGGGLVQAGGSLRISCAASGSIFAWYAMAWYRESPGKERELVATITWSGGSTYYADSVKGRFTISRDNAKNTVYLQMNSLKPEDTAVYYCAAEVVGIWYDLWYQGDYWGQGTQVTVSS
polyreactivity (PSR sort gate): low polyreactivity

QVQLVESGGGLVQAGGSLRLSCAASEGWYRQAPGKERELVAAISYIGGSTYYADSVKGRFTISRDNAKNTVYLQMNSLKPEDTAVYYCAKGYPDPQWGGVLAYDYWGQGTQVTVSS
polyreactivity (PSR sort gate): low polyreactivity

QVQLVDSGGGLVQAGGSLRLSCAASGSTFVQYAMGWYRPAPGKERELVAAISTGGSTNYADSVKGRFTISRDNAKNTVYLEMNSLKPEDTAVYYCNVAVWTIVQSLYPYDYWGQGTQVTVSS
polyreactivity (PSR sort gate): low polyreactivity

QVQLVESGGGLVQARGSLRLSCAASGRIFRYYAMGSYRQAPGKERELVASITSGARTSYADSVKGRFTISRDIAKNTVYLQMNSLKPEDTAVYYCAAGGRARTYYYWGQGTQVTVSS
polyreactivity (PSR sort gate): high polyreactivity

QVQLVESGGGLVQAGGSLRLSCAASGFTFAYNAMGWYRQAPGKERELVATISWSGGSTYYADSVKGRFTISRDNAKNTVYLQMNSLKPEDTAVYYCATTIFYTYYGLYDYWGQGTQVTVSS
polyreactivity (PSR sort gate): high polyreactivity

QVQLVESGGGLLQAGGSLRLSCAASGRIFGSYAMGWYRPAPGKERELVAAINWRGGSTFYADSVKGRFTISRDNAKNTVYLQMNSLKPEDTAVYYCARRGYRQSGDYWGQGSQVTVSS
polyreactivity (PSR sort gate): low polyreactivity

QVHLVESGGGLVQAGGSLRLSCAASGITFRTYALGGYRQAPGKERELVAAITRGDSTYYADSVKGRFTISRDNAKNTVYLQMNILKPEDTAVYYCNTETTDFRRYEYWGQGTQVTVSS
polyreactivity (PSR sort gate): low polyreactivity

QVQLVESGGGLVQAGGSLRLSCAASGLTFHPYAMGWYRQAPGKERELVAAISSRGTSTYYADSVKGRFTISRDNAKNTVYLQMNSLKPEDTAVYYCAARHGPRAESMYYWGQCTQVTVSS
polyreactivity (PSR sort gate): high polyreactivity

QVQLVESGGGLVQAGGSLRLSCAASGRTFGIYAMGWYRQAPGKERELVAAITWSGDSTYYADSVKGRFTISRDNAKNTVYLQMNSLKPEDTAVYYCAADYFGVTSVRYDYWGQGTQVTVSS
polyreactivity (PSR sort gate): low polyreactivity

QFQLVESGGGLVQAGGSLRLSCAASGRTFYQYTMGWYRQAPGKERELVAAITTSTGNTYYADSVKGRFTISRDNAKNTVYLQLNSLKPEDTAVYYCAAEPPTYKLLDYWGQGTQVTVSS
polyreactivity (PSR sort gate): low polyreactivity

QVQHVESGGGLVLAGGSLRLSCAASGRTFAYNAMGWYRQAPGKERELVAAISRSGGSTYYADSVKGRFTISRDNPKNTVYLQMYSLKPEDTAVYYSNKVTHSYVYFAAGDYWGQGTQVTVSS
polyreactivity (PSR sort gate): high polyreactivity

QVQLVESVGGLVQAGGSLRLSCAASGRPFKKYAMGCYRQAPGKERALVAAITGSGGSTYYADAVKGRFTSSRDNAKKTVYLQMNSLKPEDTAVYYCAAYAYGVWHSHDGGNYWGQGTQVTVSS
polyreactivity (PSR sort gate): low polyreactivity

QVQLVESGGGLVQAGGSLRLSCAASGSTFPSNAMGRYRQAPGKERELVAVISTSGVRTYYADSVKGRFTISRDNAKNTVYLQMNSLKPEDTAVYYCAARTRSYGGNGYRYPFDYWGQGTQVTVSS
polyreactivity (PSR sort gate): high polyreactivity

QVQLVESGGGLVQAGGSLRLSCAASGFIFFGEYVMGWYRQAPGKEREFVAAISRSSATTYYADSVKGRFTISRDTAKNTVYLQMNSLKPEDTAVYYCNAGDLGRRWGMDYWGQGTQVTVSS
polyreactivity (PSR sort gate): low polyreactivity

QFQLVESGGGLVQSGGSLRLSCAASGLIFVFYAMGWYRQAPGKERELVAAISTSGDRTYYADSVKGRFTISRDNAKNTVYLQMNSLKPEDTAVYYCAAGRRKVPYSREYYYWGQGTQVTVSS
polyreactivity (PSR sort gate): high polyreactivity

QVQLQESGGGLVQVGGSLRLSCPSSGTIFIYGFLGWNRQAPGKERELVASINLGGITNYADSVKGRCTISRDNAKNTVNLQMISLKPEDTAVYYCATYVVTGQNYGYWGQGTQVTVSR
polyreactivity (PSR sort gate): low polyreactivity

QVQLVESGGGLVQAGGSLRLSCAAAGFIFRYYAMGWYRPAPGKVRELVAAITNSGVSTYYADSVKGRFTISRDNAKNTVYLQMNRLKPEDTAVYYCAATYRTRTSQYDYWGQGTQVTVSS
polyreactivity (PSR sort gate): high polyreactivity

QVQLVESGGGLVQAGGSLRLSCAASGFTYYVNAMGWYRPAPGKERELDAAISSSGTRTYYADSVKGRFTISRDNAKNTVYLQMNSLKPEDTAVYYCAARGQAYSGDRMYYWGQGTQVTVSS
polyreactivity (PSR sort gate): high polyreactivity

QVQLVESVGGLVQAGGSLRLSCAASGFTFTWYDMGWYRQAPGKERELVAAITTDGGSTYYADSVKGRFTISRDNATNTVYLQMNSLKPEDTEVYYCAAAGYLPFPVEYEYWGQGTQVTVSS
polyreactivity (PSR sort gate): high polyreactivity

QVQLVESGGGLVQAGGSLRLSCAASGSIFWYYAMGWYRQAPGKERELVARITYSSGSTYYADSVKGRFTISRDNAKNTVYLQMNSLKPEDTAVFYCAVRLYSYLYNPFNYWGQGTQVTVSS
polyreactivity (PSR sort gate): high polyreactivity

QVQLVESGGGLVQAGGSLRLSCAASGRTFVRYAMGWYRQAPGKERELVARITSSGGSTYYADSVKGRFTISRDNAKNTVYLQMNSLKPEDTAVYYCAKDTAFYRFQGHYGYWGQGTQVTVSS
polyreactivity (PSR sort gate): high polyreactivity

QVQLVESGGGLVQAGGSLRLSCAASGRTFNYYPMGWYRQAPGKERELVAAISRSGTPTYYADSVKGRFTISRDNAKNTVYLQMNSLKPEDTAVYYCAAYLVSYPRGNYIRYDYWGQGTQVTVSS
polyreactivity (PSR sort gate): low polyreactivity

QLQLVESGGGLVQAGGSLRLSCAASGITFYVYAMGCYRQAPGKERELVAAISTSGGSTYYADSVKGRFTISRDNAKNTVYFQMNSLKPEDTAVYYCAAEELRYGLYEYDYWGQGTQVTVSS
polyreactivity (PSR sort gate): high polyreactivity

QVQLVESGGGLVQAGGSLRLSCAASGFIFTRNVMGWYRQAPGKEMELVASISKSSGSTYYADSVKGRFTISRDNAKNTVYLQMNSLNPEDTAVYYCATYAKQLSPYYYWGQGIQVTVSS
polyreactivity (PSR sort gate): high polyreactivity

QVQLVESGGGLVQAGGSLRLSCAASGRTFGCYAMGWYRQAPGKERELVASITQRGGRTYYADSVKGRFTISRDNAKNTVYLQMNSLKPEDTAVYYCAAKTSPGMYYWVQGTQVTVSS
polyreactivity (PSR sort gate): high polyreactivity

QVQLVESGGGLVQAGGSLRLSCAASGRTFLYYAMGWYRQSPGKERELVAAINRSGRTYYADSVKGRFTISRDNAKNTVYLQMNSLKPEDTAVYYCAADTRYPYRAYDYWGQGTQVTVSS
polyreactivity (PSR sort gate): high polyreactivity

QVQLVESGGGLVQAGGSLRLSCAASGRNFNVKAMGWYIQAPGKESELVAGITRGGITTYADSVKGRFTISRDNAKNSVYLQMYSLKPVDTAVYYCAAVGWGSRYDTWYYLYDYWGQGSQVTVSS
polyreactivity (PSR sort gate): high polyreactivity

QVQLVESGGGLVQAGGSLRLSCAASVRIFGSNVMGWYRQAPGKERELVASISSGGTTYYADSVKGRFTISRDNAKYTVYLQMNSLKPEDTAVYYCAKQWTRIYQYRWYPGTRTGYDYWGQGTQVTVSS
polyreactivity (PSR sort gate): high polyreactivity

QVQLVESGGGLVQAGGSLRLSCAASGRIFYYYAMGWYRQAPGKERELVAGIDSGDSTNYADSVKGRFTISRDNAKNTVYLQLNSLKPEDTAVYYCAALHYGGYFSYYPYYYWGQGTQVTVSS
polyreactivity (PSR sort gate): low polyreactivity

QVQLLESGGGLVQAGGSLRLSCAASGRNFGVNAMGWYRQAPGKERELVAVISSGGSTYYADSVKGRFTISRDNAKNTVFLQMNSLKPEDTAVYYCAAGNLPDYDYWGQGTQVTVSS
polyreactivity (PSR sort gate): low polyreactivity

QVQLVESGGGLVQAGGSRRLSCAASGLIYWYAMGWYRQAPGKERELVAAISSNGGSTYYADSVKGRFTISRDNAKNTVYLQMNSLKPEDTAVYYCAVTSFGYSVLERDYWGQGTQVTVSS
polyreactivity (PSR sort gate): low polyreactivity

QVQLVESGGGLVQAGCSLRLSCAASGSIFRYYAMGWYRQAPGKERELVAAITSSGGSTYYADSVKGRFTISRDNSKNTVYLQMNSLKPEDTAVYYCNARHVRYSRRENDYWGQGTQVTVSS
polyreactivity (PSR sort gate): high polyreactivity

QVQLVESGGGLVQAGGSLRLSCAASGSIFGYYAMGWYRQAPGKERELVATITTRGARTYYADSVKGRFTISRDNAKNTVYLQMNSLKPEDTAVYYCAAYGYYNFGYYYWGQGTQVTVSS
polyreactivity (PSR sort gate): high polyreactivity

QVQLVESGGGLVQAGGSLRLSCAASGRTFLGYAMGWYRQAPGKERELVAAISSSGGSTYYADSVKGRVTISRDNAKNTVYFQMNCLKPEDTAVYYCAKRKRATGASGHGFGYWGQGTQVTVSS
polyreactivity (PSR sort gate): high polyreactivity

QVQLVESGGGLVQAGGSLRLSCAASGRIFQRNAMGWYRQEPRKEREFVAAITKSGGGTYADSVKGRFTISRDNAKNTVYLQMNSLKPEDTAVYFCAADSRGEDYYYWGQGTQVTVSS
polyreactivity (PSR sort gate): high polyreactivity

QVQLVESAGGLVQAGGSLRLSCAASGRNLYQYAMGWYRQAPGKERELVAAITWNGGSTYYADSVKGRFTISRDNAKNTVYLQINSLKPEDTAVYYCAADSVRPWYAYKAHDYWGQGTQVTVSS
polyreactivity (PSR sort gate): low polyreactivity

QVQLVDSGGGLVHAGGSLRLSCASSGSIFNYYAMGCYRQPPGKVRELVAAISYRTGSTYYADSVKGRFTISRDNAKNTVYLQMTSLKPEDTSVYYCAADTRYGYGYWGQGTQVTVSS
polyreactivity (PSR sort gate): high polyreactivity

QVQLVESGGGLVQAGGSLRLSCAASGSIFGKNVMGWYRQAPGKERELVAAISRSGGRTYYADSVKGRFTISRDNAKNTVYLQMNSLKPEDTAVYYCAADGQPIGQQTYDYWGQGTQVTVSS
polyreactivity (PSR sort gate): high polyreactivity
